Experimental data: patent US20240400696A1

molecular target: CD3; experiment: Octet, crude lysate
Sequence (P07766 23-126): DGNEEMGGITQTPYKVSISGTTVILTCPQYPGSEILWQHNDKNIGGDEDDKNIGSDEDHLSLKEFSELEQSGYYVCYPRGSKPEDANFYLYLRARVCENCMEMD

Row | Binder | Kd [nM]
1 | AC3402 (bispecific antibody, V domains shown) VH: EVQLLESGGGIVQPGGSLKLSCAASGFTFNTYAMNWVRQAPGKGLEWVARIRSKPNNYATYYADSVKDRFTISRDDSKNTVYLQMNNLKTEDTAVYYCVRHENFGNSYVSWFAHWGQGTLVTVSS VL: ELVVTQEPSLTVSPGGTVTLTCRSSNGAVTSSNYANWVQQKPGQAPRGLIGGTNKRAPGTPARFSGSLLGGKAALTLSGVQPEDEAVYYCALWYPNLWVFGGGTKLTVL | 33.1
2 | AC3407 (bispecific antibody, V domains shown) VH: EVQLLESGGGIVQPGGSLKLSCAASGFTFNTYAMNWVRQAPGKGLEWVARIRSKYNDYATYYADSVKDRFTISRDDSKNTVYLQMNNLKTEDTAVYYCVRHENFGNSYVSWFAHWGQGTLVTVSS VL: ELVVTQEPSLTVSPGGTVTLTCRSSNGAVTSSNYANWVQQKPGQAPRGLIGGTNKRAPGTPARFSGSLLGGKAALTLSGVQPEDEAVYYCALWYPNLWVFGGGTKLTVL | 7.4
3 | AC3409 (bispecific antibody, V domains shown) VH: EVQLLESGGGIVQPGGSLKLSCAASGFTFNTYAMNWVRQAPGKGLEWVARIRSKYNNGATYYADSVKDRFTISRDDSKNTVYLQMNNLKTEDTAVYYCVRHENFGNSYVSWFAHWGQGTLVTVSS VL: ELVVTQEPSLTVSPGGTVTLTCRSSNGAVTSSNYANWVQQKPGQAPRGLIGGTNKRAPGTPARFSGSLLGGKAALTLSGVQPEDEAVYYCALWYPNLWVFGGGTKLTVL | 11.3
4 | AC3406 (bispecific antibody, V domains shown) VH: EVQLLESGGGIVQPGGSLKLSCAASGFTFNTYAMNWVRQAPGKGLEWVARIRSKYENYATYYADSVKDRFTISRDDSKNTVYLQMNNLKTEDTAVYYCVRHENFGNSYVSWFAHWGQGTLVTVSS VL: ELVVTQEPSLTVSPGGTVTLTCRSSNGAVTSSNYANWVQQKPGQAPRGLIGGTNKRAPGTPARFSGSLLGGKAALTLSGVQPEDEAVYYCALWYPNLWVFGGGTKLTVL | 575
5 | AC3413 (bispecific antibody, V domains shown) VH: EVQLLESGGGIVQPGGSLKLSCAASGFTFNTYAMNWVRQAPGKGLEWVARIRSKYNNYTTYYADSVKDRFTISRDDSKNTVYLQMNNLKTEDTAVYYCVRHENFGNSYVSWFAHWGQGTLVTVSS VL: ELVVTQEPSLTVSPGGTVTLTCRSSNGAVTSSNYANWVQQKPGQAPRGLIGGTNKRAPGTPARFSGSLLGGKAALTLSGVQPEDEAVYYCALWYPNLWVFGGGTKLTVL | 10.7
6 | AC3404 (bispecific antibody, V domains shown) VH: EVQLLESGGGIVQPGGSLKLSCAASGFTFNTYAMNWVRQAPGKGLEWVARIRSKWNNYATYYADSVKDRFTISRDDSKNTVYLQMNNLKTEDTAVYYCVRHENFGNSYVSWFAHWGQGTLVTVSS VL: ELVVTQEPSLTVSPGGTVTLTCRSSNGAVTSSNYANWVQQKPGQAPRGLIGGTNKRAPGTPARFSGSLLGGKAALTLSGVQPEDEAVYYCALWYPNLWVFGGGTKLTVL | 10.5
7 | AC3417 (bispecific antibody, V domains shown) VH: EVQLLESGGGIVQPGGSLKLSCAASGFTFNTYAMNWVRQAPGKGLEWVARIRSKYNNYATYDADSVKDRFTISRDDSKNTVYLQMNNLKTEDTAVYYCVRHENFGNSYVSWFAHWGQGTLVTVSS VL: ELVVTQEPSLTVSPGGTVTLTCRSSNGAVTSSNYANWVQQKPGQAPRGLIGGTNKRAPGTPARFSGSLLGGKAALTLSGVQPEDEAVYYCALWYPNLWVFGGGTKLTVL | 63.2
8 | AC3403 (bispecific antibody, V domains shown) VH: EVQLLESGGGIVQPGGSLKLSCAASGFTFNTYAMNWVRQAPGKGLEWVARIRSKTNNYATYYADSVKDRFTISRDDSKNTVYLQMNNLKTEDTAVYYCVRHENFGNSYVSWFAHWGQGTLVTVSS VL: ELVVTQEPSLTVSPGGTVTLTCRSSNGAVTSSNYANWVQQKPGQAPRGLIGGTNKRAPGTPARFSGSLLGGKAALTLSGVQPEDEAVYYCALWYPNLWVFGGGTKLTVL | 11.1
9 | AC3410 (bispecific antibody, V domains shown) VH: EVQLLESGGGIVQPGGSLKLSCAASGFTFNTYAMNWVRQAPGKGLEWVARIRSKYNNFATYYADSVKDRFTISRDDSKNTVYLQMNNLKTEDTAVYYCVRHENFGNSYVSWFAHWGQGTLVTVSS VL: ELVVTQEPSLTVSPGGTVTLTCRSSNGAVTSSNYANWVQQKPGQAPRGLIGGTNKRAPGTPARFSGSLLGGKAALTLSGVQPEDEAVYYCALWYPNLWVFGGGTKLTVL | 6.1
10 | AC3416 (bispecific antibody, V domains shown) VH: EVQLLESGGGIVQPGGSLKLSCAASGFTFNTYAMNWVRQAPGKGLEWVARIRSKYNNYATTYADSVKDRFTISRDDSKNTVYLQMNNLKTEDTAVYYCVRHENFGNSYVSWFAHWGQGTLVTVSS VL: ELVVTQEPSLTVSPGGTVTLTCRSSNGAVTSSNYANWVQQKPGQAPRGLIGGTNKRAPGTPARFSGSLLGGKAALTLSGVQPEDEAVYYCALWYPNLWVFGGGTKLTVL | 17.9
11 | AC3408 (bispecific antibody, V domains shown) VH: EVQLLESGGGIVQPGGSLKLSCAASGFTFNTYAMNWVRQAPGKGLEWVARIRSKYNEYATYYADSVKDRFTISRDDSKNTVYLQMNNLKTEDTAVYYCVRHENFGNSYVSWFAHWGQGTLVTVSS VL: ELVVTQEPSLTVSPGGTVTLTCRSSNGAVTSSNYANWVQQKPGQAPRGLIGGTNKRAPGTPARFSGSLLGGKAALTLSGVQPEDEAVYYCALWYPNLWVFGGGTKLTVL | 8.3
12 | AC3412 (bispecific antibody, V domains shown) VH: EVQLLESGGGIVQPGGSLKLSCAASGFTFNTYAMNWVRQAPGKGLEWVARIRSKYNNYGTYYADSVKDRFTISRDDSKNTVYLQMNNLKTEDTAVYYCVRHENFGNSYVSWFAHWGQGTLVTVSS VL: ELVVTQEPSLTVSPGGTVTLTCRSSNGAVTSSNYANWVQQKPGQAPRGLIGGTNKRAPGTPARFSGSLLGGKAALTLSGVQPEDEAVYYCALWYPNLWVFGGGTKLTVL | 8.2
13 | AC3411 (bispecific antibody, V domains shown) VH: EVQLLESGGGIVQPGGSLKLSCAASGFTFNTYAMNWVRQAPGKGLEWVARIRSKYNNWATYYADSVKDRFTISRDDSKNTVYLQMNNLKTEDTAVYYCVRHENFGNSYVSWFAHWGQGTLVTVSS VL: ELVVTQEPSLTVSPGGTVTLTCRSSNGAVTSSNYANWVQQKPGQAPRGLIGGTNKRAPGTPARFSGSLLGGKAALTLSGVQPEDEAVYYCALWYPNLWVFGGGTKLTVL | 7.8
14 | AC3414 (bispecific antibody, V domains shown) VH: EVQLLESGGGIVQPGGSLKLSCAASGFTFNTYAMNWVRQAPGKGLEWVARIRSKYNNYATDYADSVKDRFTISRDDSKNTVYLQMNNLKTEDTAVYYCVRHENFGNSYVSWFAHWGQGTLVTVSS VL: ELVVTQEPSLTVSPGGTVTLTCRSSNGAVTSSNYANWVQQKPGQAPRGLIGGTNKRAPGTPARFSGSLLGGKAALTLSGVQPEDEAVYYCALWYPNLWVFGGGTKLTVL | 939
15 | AC3415 (bispecific antibody, V domains shown) VH: EVQLLESGGGIVQPGGSLKLSCAASGFTFNTYAMNWVRQAPGKGLEWVARIRSKYNNYATEYADSVKDRFTISRDDSKNTVYLQMNNLKTEDTAVYYCVRHENFGNSYVSWFAHWGQGTLVTVSS VL: ELVVTQEPSLTVSPGGTVTLTCRSSNGAVTSSNYANWVQQKPGQAPRGLIGGTNKRAPGTPARFSGSLLGGKAALTLSGVQPEDEAVYYCALWYPNLWVFGGGTKLTVL | 183
